Paper PMC3638396 (Philosophical Transactions of the Royal Society B: …, 2013)

Columns and labels:
[1] = target: the molecule itself; test: quartz crystal microbalance; sonicated Ure2p fibril seeds attached to the gold sensor by Traut's reagent; 1 μM soluble Ure2p introduced, measured without flow; Tris buffer pH 8.4; elongation of the surface-bound seeds
[2] = target: T1, WT Ssa1p (yeast (S. cerevisiae), UniProt P10591 1-642); test: co-sedimentation; called 'pull-down assay' / 'filament pull-down assay': 10 μM Ure2p fibril seeds with 20 μM WT or ΔA Ssa1p, Tris buffer pH 8.4, 30°C, 2 h; centrifuged through 40 per cent sucrose at 61 000 rpm, 30 min, 4°C; washed pellets on SDS-PAGE; details: both partners purified
T1 construct: Ssa1p, yeast HSP70 family member, residues 1-642 (NBD, SBD, CTD); also called wild-type Ssa1p; full-length Ssa1p; source: plasmid pPROEX-HTb-Ssa1
T1 sequence (P10591 whole entry, the tested form may be a part): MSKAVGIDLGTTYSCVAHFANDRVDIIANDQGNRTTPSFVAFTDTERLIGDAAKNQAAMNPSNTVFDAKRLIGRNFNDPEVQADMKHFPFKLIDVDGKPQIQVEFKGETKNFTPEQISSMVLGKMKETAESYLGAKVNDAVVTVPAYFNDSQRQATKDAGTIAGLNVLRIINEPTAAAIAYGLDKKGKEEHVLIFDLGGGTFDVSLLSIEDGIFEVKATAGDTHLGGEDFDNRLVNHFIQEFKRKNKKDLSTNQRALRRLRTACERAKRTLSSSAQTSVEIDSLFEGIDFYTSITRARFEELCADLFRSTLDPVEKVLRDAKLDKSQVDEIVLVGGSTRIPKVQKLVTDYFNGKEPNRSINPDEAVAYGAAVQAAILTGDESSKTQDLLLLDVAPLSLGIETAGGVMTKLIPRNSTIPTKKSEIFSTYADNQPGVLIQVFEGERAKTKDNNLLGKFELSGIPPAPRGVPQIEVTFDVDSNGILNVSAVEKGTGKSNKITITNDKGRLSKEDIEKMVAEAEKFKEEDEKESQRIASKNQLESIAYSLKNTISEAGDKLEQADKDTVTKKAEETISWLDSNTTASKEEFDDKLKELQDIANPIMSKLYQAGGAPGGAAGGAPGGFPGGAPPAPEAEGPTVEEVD

B1: Ure2p (natural protein, Saccharomyces cerevisiae, UniProt P23202 1-354, looked up)
chain: MMNNNGNQVSNLSNALRQVNIGNRNSNTTTDQSNINFEFSTGVNNNNNNNSSSNNNNVQNNNSGRNGSQNNDNENNIKNTLEQHRQQQQAFSDMSHVEYSRITKFFQEQPLEGYTLFSHRSAPNGFKVAIVLSELGFHYNTIFLDFNLGEHRAPEFVSVNPNARVPALIDHGMDNLSIWESGAILLHLVNKYYKETGNPLLWSDDLADQSQINAWLFFQTSGHAPMIGQALHFRYFHSQKIASAVERYTDEVRRVYGVVEMALAERREALVMELDTENAAAYSAGTTPMSQSRFFDYPVWLVGDKLTIADLAFVPWNNVVDRIGINIKIEFPEVYKWTKHMMRRPAVIKALRGE
notes: Ure2p, the protein determinant of the Saccharomyces cerevisiae prion state [URE3]; a 354-residue protein; One construct used in two states: native soluble protein (DLS, solution phase of QCM) and sonicated fibril seeds (co-sedimentation, QCM sensor; seeds treated with Traut's reagent for the sensor); The state is told in each assay's format; also called native Ure2p; soluble Ure2p; source: …
binding result [1]: binds
binding result [2]: binds
